Several values for one entry are separate records, joined by “and”; a condition that tells them apart may be missing. Equal entries are not always repeated.
B1: phenylalanine hydroxylase, wild type (PAH-WT), full-length (enzyme, human, UniProt P00439 1-452, looked up)
chain: MSTAVLENPGLGRKLSDFGQETSYIEDNCNQNGAISLIFSLKEEVGALAKVLRLFEENDVNLTHIESRPSRLKKDEYEFFTHLDKRSLPALTNIIKILRHDIGATVHELSRDKKKDTVPWFPRTIQELDRFANQILSYGAELDADHPGFKDPVYRARRKQFADIAYNYRHGQPIPRVEYMEEEKKTWGTVFKTLKSLYKTHACYEYNHIFPLLEKYCGFHEDNIPQLEDVSQFLQTCTGFRLRPVAGLLSSRDFLGGLAFRVFHCTQYIRHGSKPMYTPEPDICHELLGHVPLFSDRSFAQFSQEIGLASLGAPDEYIEKLATIYWFTVEFGLCKQGDSIKAYGAGLLSSFGELQYCLSEKPKLLPLELEKTAIQNYTVTEFQPLYYVAESFNDAKEKVRNFAATIPRPFSVRYDPYTQRIEVLDNTQQLKILADSINSEIGILCSALQKIK
modifications: biotin (EZ-Link NHS-PEG4-Biotin) in the BLI experiments only
notes: phenylalanine hydroxylase (PAH), human, wild type; RD residues 1-110, CD 111-410, OD 411-452; Homotetramer; a minor octamer is also seen; also called full-length PAH

How the values were obtained:
[1] = molecular target: the molecule itself; assay: SEC-MALS; PAH (2 mg/mL) and pre-purified PAH:DNAJC12 complex (2 mg/mL); Superdex 200 Increase, 20 mM Na-Hepes pH 7.0, 200 mM NaCl, without L-Phe supplementation
[2] = molecular target: T1, DNAJC12, wild type, full-length (human, UniProt Q9UKB3 1-198); assay: BLI; with 1 mM L-Phe; biotinylated PAH on streptavidin biosensors, DNAJC12 0.01-4 μM in solution; 25°C, PBS, 0.02% Tween-20, 0.5 mg/mL BSA; responses against concentration fitted to a one-site hyperbola; conditions: both partners purified
T1 construct: J-domain 14-76, linker-helix 87-100, CTD 176-198; also called DNAJC12-WT

[3] = molecular target: T1, DNAJC12, wild type, full-length; assay: BLI; without L-Phe; biotinylated PAH or TH on streptavidin biosensors, DNAJC12 0.01-4 μM in solution; 25°C, PBS, 0.02% Tween-20, 0.5 mg/mL BSA; responses against concentration fitted to a one-site hyperbola; conditions: both partners purified
[4] = molecular target: T1, DNAJC12, wild type, full-length; assay: SEC; with 1 mM L-Phe in sample and running buffer; 20 μM (subunit) PAH, PAH variant or MBP-PAH construct with 20-40 μM DNAJC12 or truncated DNAJC12; Superdex 200 Increase, 4°C, 20 mM Na-Hepes pH 7.0, 200 mM NaCl; complex fraction also checked by SDS-PAGE; conditions: both partners purified
[5] = molecular target: B1; assay: differential scanning fluorimetry; thermal unfolding of PAH (1.92 μM) with SYPRO Orange at increasing DNAJC12(176-198) peptide (0-16 μM); Tm1 followed; conditions: both partners purified
[6] = molecular target: the molecule itself; assay: SEC-MALS; MBP-PAH(RD) (4 mg/mL) alone or with DNAJC12 (4 mg/mL); Superdex 200 Increase, 20 mM Na-Hepes pH 7.0, 200 mM NaCl, 1 mM L-Phe

Kd [3] [nM]	binding result [4]	Binder	also measured
508 ± 59	–	B1	stoichiometry N [1]: 8 subunits in the oligomer and 4 subunits in the oligomer; Kd [2]: 139 ± 19 nM
–	binds	PAH-p.R261Q (enzyme, human, phenylalanine hydroxylase (PAH), human, disease-associated variant p.R261Q; Derived from pMAL-c5x/PAH, which encodes human PAH-WT; called tetrameric in the legends; also called PKU-associated variant PAH-p.R261Q; source: E. coli K12 TB1, purified) MSTAVLENPGLGRKLSDFGQETSYIEDNCNQNGAISLIFSLKEEVGALAKVLRLFEENDVNLTHIESRPSRLKKDEYEFFTHLDKRSLPALTNIIKILRHDIGATVHELSRDKKKDTVPWFPRTIQELDRFANQILSYGAELDADHPGFKDPVYRARRKQFADIAYNYRHGQPIPRVEYMEEEKKTWGTVFKTLKSLYKTHACYEYNHIFPLLEKYCGFHEDNIPQLEDVSQFLQTCTGFRLRPVAGLLSSRDFLGGLAFQVFHCTQYIRHGSKPMYTPEPDICHELLGHVPLFSDRSFAQFSQEIGLASLGAPDEYIEKLATIYWFTVEFGLCKQGDSIKAYGAGLLSSFGELQYCLSEKPKLLPLELEKTAIQNYTVTEFQPLYYVAESFNDAKEKVRNFAATIPRPFSVRYDPYTQRIEVLDNTQQLKILADSINSEIGILCSALQKIK	–
–	–	HLRFRWSKDAPSELLRKFRNYEI (peptide, UniProt Q9UKB3 176-198, looked up, only its last seven residues 192-KFRNYEI-198 are printed; also called C-terminal DNAJC12 peptide; CTD peptide; source: synthetic peptide, bought: GenScript) [C-terminal peptide DNAJC12(176-198)]	binding result [5]: binds
138 ± 34	–	tyrosine hydroxylase (TH) (enzyme, biotin (EZ-Link NHS-PEG4-Biotin) in the BLI experiment only, tyrosine hydroxylase (TH); The methods tell neither plasmid nor purification of TH; also called unliganded TH) not shown	–
–	binds	MBP-PAH(33-112) (domain or fragment, human, UniProt P00439 33-112, looked up, Derived from pMAL-c5x/PAH (GenScript); Dimer in 1 mM L-Phe by SEC-MALS; theoretical monomer 52.9 kDa with MBP; also called MBP-PAH(RD); PAH(RD); source: E. coli K12 TB1, purified) GAISLIFSLKEEVGALAKVLRLFEENDVNLTHIESRPSRLKKDEYEFFTHLDKRSLPALTNIIKILRHDIGATVHELSRD	stoichiometry N [6]: 2 subunits in the oligomer
